Test [1] deals with T1, Nucleocapsid a. a. 401–410 (Frag 5) (SARS-CoV-2 (YP_009724397 reference)).
T1 construct: SARS-CoV-2 nucleocapsid protein, residues 401-410; also called Fragment 5; WT (a.a. 401–410) peptide; source: synthetic peptide (Thermo Scientific)
T1 chain: DDFSKQLQQS
Kind of test: ELISA; peptide competition ELISA: plate coated with 0.1 ug/ml recombinant NP overnight at 4°C; 40 μL mBG17 pre-incubated 1 h at room temperature with 40 μg (approximately 30 nMol) of a single peptide, then applied to the plate 1 h at room temperature; goat anti-mouse HRP, A450; triplicate. To be noted: both partners purified. (An ELISA detects its analyte on a solid surface through an enzyme-linked reagent.)

Test [2] deals with T2, recombinant SARS-CoV-2 nucleocapsid protein (SARS-CoV-2 (reference sequence …, UniProt P0DTC9)).
T2 construct: SARS-CoV-2 nucleocapsid protein; also called NP; SARS-CoV-2 NP
Described as above. To be noted: both partners purified.

B1: anti-SARS-CoV-2 nucleocapsid protein (NP) monoclonal mouse antibody mBG17 (recombinant) (antibody, V domains shown)
VH: EVKLEESGGGLVQPGGSMKFSCVASGFTFSDYWMNWVRQSPDKGLEWVAEIRLKSNNYATHYAASVKGRFTISRDDSKSSVYLQMNNLRAEDSGIYYCTRSAMDYWGQGTSVTVSS
VL: DIVMSQSPSSLAVSVGEKITMSCKSSQSLLYTSDQKNYLAWFQQKPGQSPKLLIFWASTRDSGVPDRFTGSGSGTDFTLTISSVKAEDLAVYYCQQFYNYPRTFGGGTKLEIK
notes: Whole antibody, detected with goat anti-mouse HRP; The scFv forms were used in calculations only; also called recombinant mBG17
B1: the binding result in test [1] and in test [2] was “binds” each time.

The values are drawn from article doi:10.1101/2024.04.19.590298 (bioRxiv, 2024).
